Test results reported in patent publication US20260139049A1 (PEDIATRIC IMMUNITY AND HEALTHCARE GUANGZHOU BIOTECHNOLOGY, published 2026).
Like-named read-outs stand apart in the source and are kept apart here. Values belong to the binder of their own block, whether it stands above or below them.

What was measured:
human CLDN6 [1] = biological target: T1, human CLDN6 (human, UniProt P56747 1-220); test: FACS on HEK293T-CLDN6 cells
T1 construct: whole, on cells; four-transmembrane protein; also called claudin-6; HEK293T-CLDN6
T1 sequence (looked up): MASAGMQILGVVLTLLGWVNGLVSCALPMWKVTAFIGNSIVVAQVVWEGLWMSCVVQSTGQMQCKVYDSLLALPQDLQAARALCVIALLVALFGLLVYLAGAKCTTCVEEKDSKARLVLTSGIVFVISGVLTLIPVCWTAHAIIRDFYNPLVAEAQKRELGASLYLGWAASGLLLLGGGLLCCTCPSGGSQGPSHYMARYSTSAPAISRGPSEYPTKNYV
Method: To detect a binding capacity of a chimeric or humanized antibody to CLDN6, a CLDN6-expressing cell line HEK293T-CLDN6 and a CLDN6-negative control cell line HEK293T were washed three times with PBS. 1×10⁵ test cells and 50 μL of an antibody solution to be tested were added to a 96-well plate, and incubated at 4° C. for 1 h. The cells were then washed three times with PBS. […] Finally, cells were washed three times with PBS, and signals were read using FACS.
An EC50 value (a concentration of an antibody that binds to half of binding sites at equilibrium) is calculated through nonlinear regression.

human CLDN6 [2] = biological target: T1, human CLDN6; test: FACS on 293T-CLDN6 cells, 10 µg/mL
human CLDN9 [3] = biological target: T2, human CLDN9 (human, UniProt O95484 1-217); test: FACS on 293T-CLDN9 cells, 10 µg/mL
T2 construct: whole, on cells; also called HEK293T-CLDN9
T2 sequence (looked up): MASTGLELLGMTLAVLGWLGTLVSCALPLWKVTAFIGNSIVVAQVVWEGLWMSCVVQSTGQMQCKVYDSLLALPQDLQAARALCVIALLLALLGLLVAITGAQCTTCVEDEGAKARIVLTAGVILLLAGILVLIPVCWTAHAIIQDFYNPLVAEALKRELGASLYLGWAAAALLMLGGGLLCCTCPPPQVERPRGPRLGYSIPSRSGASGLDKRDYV
Method: (§1) 50 μL of an antibody to be tested was added to a 96-well plate, then 1× 10⁵ cells were added to each well, and incubation was conducted at 4° C. for 1 h. Cells were washed three times with PBS. […] Finally, cells were washed three times with PBS, and signals were read using FACS. Binding capacities of the antibody to CLDN9, CLDN3, and CLDN4 were analyzed separately based on detection data.

human CLDN9 [4] = biological target: T2, human CLDN9; test: FACS on 293T-CLDN9 cells
mouse CLDN6 = biological target: T3, mouse CLDN6 (mouse, UniProt Q9Z262 1-219); test: FACS on CHO-K1-Mouse CLDN6 cells (FIG. 15)
T3 construct: whole, on cells; also called CHO-K1-Mouse CLDN6
T3 sequence (looked up): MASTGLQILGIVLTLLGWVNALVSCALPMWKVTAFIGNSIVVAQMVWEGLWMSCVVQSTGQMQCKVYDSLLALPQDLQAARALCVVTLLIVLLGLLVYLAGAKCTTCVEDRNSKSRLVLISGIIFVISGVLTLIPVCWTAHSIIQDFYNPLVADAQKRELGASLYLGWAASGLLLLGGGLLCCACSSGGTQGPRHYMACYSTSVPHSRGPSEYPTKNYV

human CLDN6 [5] = biological target: T1, human CLDN6; test: FACS on 293T-CLDN6 cells, 10 µg/mL; remark: listed apart in the source
human CLDN9 [6] = biological target: T2, human CLDN9; test: FACS on 293T-CLDN9 cells, 10 µg/mL; remark: listed apart in the source
Method: as §1

B2: 20A3-2A7 (antibody, human IgG1, kappa, V domains shown)
VH: QAYLQQSGAELVRSGASVKMSCKASGYTFTSYNMHWVKQTPGQGLEWIGYIYPGNGGTNYNQKFKGKATLTADTSSSTAYMQISSLTSEDSAVYFCARWKYYDKTTHYALDYWGQGTLVTVSS
VL: DIVLTQSPASLAVSLGQWATISCRASKSVSTSGYSYIHWHQQKPGQPPKLLIYLASNLESGVPARFSGSGSGTDFTLNIHPVEEEDAATYYCHHSRELPFTFGSGTKLEIKR
notes: chimeric: murine variable regions on human IgG1 constant regions
- binding result (human CLDN9 [4]): binds
- binding result (mouse CLDN6): binds

B3: 20A3-M1 (antibody, human IgG1, kappa, V domains shown)
VH: QAYLQQSGAELVRSGASVKMSCKASGYTFTSYNMHWVKQTPGQGLEWIGYIYPGNAGTNYNQKFKGKATLTADTSSSTAYMQISSLTSEDSAVYFCARWKYYDKTTHYALDYWGQGTLVTVSS
VL: DIVLTQSPASLAVSLGQWATISCRASKSVSTSGYSYIHWHQQKPGQPPKLLIYLASNLESGVPARFSGSGSGTDFTLNIHPVEEEDAATYYCHHSRELPFTFGSGTKLEIKR
notes: 20A3-2A7 with G of NG in heavy-chain CDR2 changed to A; also called improved antibody 20A3-M1
- Geom.Mean (human CLDN6 [5]): 40200
- Geom.Mean (human CLDN9 [6]): 243

Now from value to binder:

- EC50 (human CLDN6 [1]): 0.73 µg/mL
- Geom.Mean (human CLDN6 [2]): 41800
- Geom.Mean (human CLDN9 [3]): 1740
B1: RecA101 (antibody, human IgG1, kappa, V domains shown)
VH: EVQLQQSGPELVKPGASVKMSCKASGYTFTDYNMHWVKKSHGKSLEWIGYVNPNNGATSYNQKFKGKATLTVNKSSSTAYMELRSLTSEDSAVYNCARWDGYVYYYGLDYWGQGTSVTVSS
VL: DIQMTQSSSYLSVSLGGRVTITCKASDHINNWLAWYQQKPGNAPRLLISGATSLETGVPSRFSGSGSGKDYTLSITSLQTEDVATYYCQQYWNTPYTFGGGTKLEIKR
notes: heavy chain of 51C10H4 with light chain of 54B5A7; IgG1; also called improved chimeric monoclonal antibody RecA101; recombined chimeric monoclonal antibody RecA101

- Geom.Mean (human CLDN6 [5]): 34000
- Geom.Mean (human CLDN9 [6]): 297
B4: 20A3-M2 (antibody, human IgG1, kappa, V domains shown)
VH: QAYLQQSGAELVRSGASVKMSCKASGYTFTSYNMHWVKQTPGQGLEWIGYIYPGNQGTNYNQKFKGKATLTADTSSSTAYMQISSLTSEDSAVYFCARWKYYDKTTHYALDYWGQGTLVTVSS
VL: DIVLTQSPASLAVSLGQWATISCRASKSVSTSGYSYIHWHQQKPGQPPKLLIYLASNLESGVPARFSGSGSGTDFTLNIHPVEEEDAATYYCHHSRELPFTFGSGTKLEIKR
notes: 20A3-2A7 with G of NG in heavy-chain CDR2 changed to Q; also called improved antibody 20A3-M2
